From CN114685656A (鲁南制药集团股份有限公司, dated 2022)
Where a chain is given by its changes, count along the chain named.

B1: 40F3 (antibody, V domains shown)
VH: QVQLQQPGAELGKPGASVKLSCKASGYTFSSYYIYWLKQRPGQGLEWIGGINPSNDDTHLTEKFKSKATLIADRSSSTAYIQLSSLTSEDSAVYYCTRSYYANSWFAYWGQGTLVTVSA
VL: DIVLTQSPLSLPVSLGDQASISCRSSQTIVHSNGNTYLAWYLQKPGQSPKLLIYKVSNRFSGVPDRFSGSGSGTEFTLKISRVEAEDLGVYYCFQGSHVPYTFGGGTKLEIK
notes: also called 抗SIRPα抗体40F3
B2: 52B3 (antibody, V domains shown)
VH: EVQLQQSGAELVRSGASVKMSCKASDYTFTSYNLHWVKQTPGQGLEWIGYIYPGNGNTKYSQKFKGKATLTADTSSSTAYMQISSLTSEDSAVYFCTRNYDYYFYTMGYWGQGTTVTVSS
VL: DIVLTQSPKFMSTSVGDRVNITCKASQDVCTAVAWYQQKPGQSPKLLIYSASYRYTGVPDRFTGSGSRTDFTFTISSVQAEDLAVYYCQQHYSTPLTFGAGTKLELK
notes: also called 抗SIRPα抗体52B3
B3: 57B10 (antibody, V domains shown)
VH: B2 VH with Q3K, Q6E, D26G, L34M, V37I, N57A, K59N, S61N, T97A, G108D
VL: B2 VL with P8T, N20S, C30S, Y86F, Y92F, T94A
notes: also called 抗SIRPα抗体57B10
B4: 36D6 (antibody, V domains shown)
VH: EVQLQESGPELKKPGETVKISCKASGYTFTKYGMNWVKQAPGKGLKWLAWINTDTGEAKYSDDFKGRFAFSLETSASIVYLQINNLKNEDTATYFCARGESYSNYVRFVYWGQGTTVTVSS
VL: DIVMTQSHKFMSTSVGDRVSITCKASQDVNTAVAWYQQKAGHSPKLLIYWTSTRHTGVPDRFTGSGSGTDYTLTISSVQAEDLTLYYCQQHYSTPWTFGGGTKLEIK
notes: also called 抗SIRPα抗体36D6
B5: 36G4 (antibody, V domains shown)
VH: EVQLVESGGGLVQPGGSLKLSCAASGFTFSNYGMSWVRQTPDKRLELVATINSNGGDTSYPDSVRGRFTISRDNAKNTLYLQMSSLKSEDTAMYYCTRGGWSWFAYWGQGTLVTVSA
VL: DIVLTQSPTSLAVSLGQRATISCRASESADSYGNSYMNWYQQKPGQPPKLLIYLASNLESGVPARFSGSGSRTDFTLTIDPVEADDAATYYCQQINEDPYTFGGGTKLEIK
notes: also called 抗SIRPα抗体36G4
B6: Kwar23 (antibody, V domains shown)
VH: EVQLQQSGAELVKPGASVKLSCTASGFNIKDYYIHWVQQRTEQGLEWIGRIDPEDGETKYAPKFQDKATITADTSSNTAYLHLSSLTSEDTAVYYCARWGAYWGQGTLVTVSS
VL: QIVLTQSPAIMSASPGEKVTLTCSASSSVSSSYLYWYQQKPGSSPKLWIYSTSNLASGVPARFSGSGSGTSYSLTISSMEAEDAASYFCHQWSSYPRTFGAGTKLELK

Legend:
重组hu-SIRPα-his = 重组hu-SIRPα-his (human, UniProt P78324 31-370, limits assumed); assay: ELISA on coated hu-SIRPα-his (0.5 μg/ml), anti-mouse IgG-HRP
重组hSIRPα [1] = target: T1, 重组hSIRPα (human, UniProt P78324 31-370, limits assumed); assay: competition ELISA on coated hSIRPα (1 μg/ml) against biotinylated CD47-Fc (6 μg/ml)
T1 construct: also called SIRPα蛋白; SIRPα抗原

[2] = target: 人SIRPα受体 on CHO cells (CHO-huSIRPα) (human) (UniProt P78324); assay: flow cytometry on CHO-huSIRPα cells, PE anti-mouse IgG Fc
[3] = target: 猴SIRPα受体 on CHO cells (CHO-cyno-SIRPα) (monkey (cyno)); assay: flow cytometry on CHO-cyno-SIRPα cells, PE anti-mouse IgG Fc
重组hSIRPg-his [4] = target: T2, 重组hSIRPg-his (human, UniProt Q9P1W8 29-360, limits assumed); assay: ELISA on coated hSIRPg-his (1 μg/ml), anti-mouse IgG-HRP
T2 construct: also called sirp-γ

[5] = target: 人SIRPα受体 on CHO cells (CHO-huSIRPα) (human) (UniProt P78324); assay: flow cytometry, hybridoma supernatant on CHO-huSIRPα cells, PE anti-mouse IgG Fc
[6] = target: 猴SIRPα受体 on CHO cells (CHO-cyno-SIRPα) (monkey (cyno)); assay: flow cytometry, hybridoma supernatant on CHO-cyno-SIRPα cells, PE anti-mouse IgG Fc
重组hSIRPα [7] = target: T1, 重组hSIRPα; assay: SPR (Biacore T200), antibody captured on Protein A chip, SIRPα protein as analyte, 1:1 Langmuir fit
重组hSIRPg-his [8] = target: T2, 重组hSIRPg-his; assay: competition ELISA on coated hSIRPg-his (1 μg/ml) against biotinylated CD47-Fc (6 μg/ml)

Molecule | EC50 (重组hu-SIRPα-his) [µg/mL] | IC50 (重组hSIRPα [1]) [µg/mL] | MFI [2] [MFI] | MFI [3] [MFI] | binding result (重组hSIRPg-his [4]) | MFI [5] [MFI] | MFI [6] [MFI] | Kd (重组hSIRPα [7]) [nM] | IC50 (重组hSIRPg-his [8]) [µg/mL]
SE5A5 (antibody) | 0.0225 | 0.121 |  |  |  |  |  |  | 
mIgG (antibody) |  |  | 86.6 | 76.4 |  |  |  |  | 
B1 | 0.00587 | 0.0653 |  |  | no binding | 17200 | 7570 | ~0.01 | 
B2 | 0.00736 | 0.121 |  |  |  | 13600 | 6980 |  | 0.196
B3 | 0.00546 | 0.0633 |  |  |  | 18500 | 9230 | ~0.01 | 
B4 | 0.0192 | 0.248 |  |  |  | 9270 | 5000 |  | 
B5 | 0.0235 | 0.15 |  |  |  | 9520 | 4560 |  | 
B6 |  |  |  |  |  |  |  |  | 0.0394
